These are literature values, as cited in patent publication US7759315B2, “Treatment of inflammatory conditions of the intestine” (CSL Behring AG, priority 2005, dated 2010).

The conditions of series [1]: percent helicity, micelles.
In another series the target is T1, LCAT (Homo sapiens, UniProt P04180).
T1 sequence (P04180 25-440): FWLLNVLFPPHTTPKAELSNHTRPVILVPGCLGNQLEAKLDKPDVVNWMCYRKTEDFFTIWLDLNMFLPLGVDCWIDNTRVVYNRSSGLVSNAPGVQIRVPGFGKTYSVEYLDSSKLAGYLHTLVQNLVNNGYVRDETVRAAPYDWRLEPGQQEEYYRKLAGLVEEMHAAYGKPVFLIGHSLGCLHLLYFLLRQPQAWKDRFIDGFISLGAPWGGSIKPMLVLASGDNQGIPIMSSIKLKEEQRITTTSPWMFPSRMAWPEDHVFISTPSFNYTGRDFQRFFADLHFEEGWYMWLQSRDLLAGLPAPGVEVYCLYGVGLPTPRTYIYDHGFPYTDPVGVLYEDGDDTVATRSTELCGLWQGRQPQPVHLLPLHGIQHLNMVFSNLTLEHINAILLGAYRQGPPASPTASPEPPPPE

Non-standard residues stand in square brackets, D forms with d. No end group written: not given here. Aib = CC(C)(N)C(=O)O

“Ac-PVLDEFREKLNEELEALKQKLK-NH2 [Peptide 75, reference compound]”: the “He (%)” value in series [1] is 28%.

As for DWFKAFYDKVAEKFKEAF [Peptide 243], the “ACTIVITY (%) LCAT” value with LCAT is recorded as 5%. Further, the “He (%)” value in series [1] is given as 64%. Consider “DWLKAFYDKVAEKLKEAF* (not fully specified (N-terminus, C-terminus); printed as DWLKAFYDKVAEKLKEAF*) [Peptide 240]”, for which the “ACTIVITY (%) LCAT” value with LCAT is recorded as 10%. In addition, the “He (%)” value in series [1] is recorded as 68%. DWLKAFYDKVFEKFKEFF [Peptide 245]: the “ACTIVITY (%) LCAT” value with LCAT is 4%. In addition, in series [1], the “He (%)” value is listed as 77%. As to “DWLKAPYDKVAEKLKEAF (DWLKAFYDKVAEKLKEAF) [Peptide 244, 18A peptide (Anantharamiah et al., 1985), reference compound]”, the “ACTIVITY (%) LCAT” value in the series with LCAT is given as 5%. In addition, the “He (%)” value in series [1] is recorded as 40%. For “EWLEAFYKKVLEKLKELF [Peptide 246, 18AM4 peptide (Rosseneu et al., WO93/25581; Corijn et al., 1993), reference compound]”, in the series with LCAT, the “ACTIVITY (%) LCAT” value is reported as 4%. The “He (%)” value in series [1] is listed as 44%. On to “EWLEAFYKKVLEKLKELF* (Ac-EWLEAFYKKVLEKLKELF-NH2) [Peptide 239, Ac-18AM4-C(O)NH2 peptide (Brasseur, 1993), reference compound]”, for which the “ACTIVITY (%) LCAT” value in the series with LCAT is listed as 11%. In addition, the “He (%)” value in series [1] is 49%. In the case of “EWLKAFYEKVLEKLKELF [Peptide 248, [Glu^1.8; Leu^5,11,17]; 18A peptide (Epand et al., 1987), reference compound]”, the “ACTIVITY (%) LCAT” value with LCAT was 3%. For the same substance, the “He (%)” value in series [1] was 45%. Turning to “EWLKAFYEKVLEKLKELF* (Ac-EWLKAFYEKVLEKLKELF-NH2) [Peptide 238, Ac-18AMOD-C(O)NH2 peptide (Epand et al., 1987), reference compound]”, in the series with LCAT, the “ACTIVITY (%) LCAT” value is recorded as 19%. Moreover, in series [1], the “He (%)” value was 72%. Turning to GVLELFENLLERLLDALQKKLK [Peptide 145], the “ACTIVITY (%) LCAT” value in the series with LCAT is recorded as 100%. In addition, in series [1], the “He (%)” value is recorded as 51%. KLKQKLAELLENLLERFLDLVP [Peptide 99]: the “ACTIVITY (%) LCAT” value in the series with LCAT was 2%. Besides, the “He (%)” value in series [1] is recorded as 88%. As to “pVLDLFRELLNEGLEALKQKLK ([dP]VLDLFRELLNEGLEALKQKLK; not fully specified (C-terminus); printed as pVLDLFRELLNEGLEALKQKLK) [Peptide 19]”, the “ACTIVITY (%) LCAT” value in the series with LCAT is reported as 58%. As to pVLDLFRELLNELLEALKQKLK [Peptide 21], the “ACTIVITY (%) LCAT” value with LCAT is recorded as 57%. As to “pVLDLFRELLNELLEALKQKLKK ([dP]VLDLFRELLNELLEALKQKLKK; not fully specified (C-terminus); printed as pVLDLFRELLNELLEALKQKLKK) [Peptide 5]”, the “ACTIVITY (%) LCAT” value with LCAT is given as 90%. Turning to pvLDLFRELLNELLEALKQKLK [Peptide 48], the “ACTIVITY (%) LCAT” value with LCAT is listed as 22%.

Take “pvlelfenllerlldalgkklk ([dP][dV][dL][dE][dL][dF][dE][dN][dL][dL][dE][dR][dL][dL][dD][dA][dL][dQ][dK][dK][dL][dK]) [Peptide 174]”: in the series with LCAT, the “ACTIVITY (%) LCAT” value is on record as 13%. With “~VLDEFREKLNEXLEALKQKLK (VLDEFREKLNE[Aib]LEALKQKLK; not fully specified (C-terminus); printed as ~VLDEFREKLNEXLEALKQKLK) [Peptide 65]”, in the series with LCAT, the “ACTIVITY (%) LCAT” value is 15%. As to ~VLDLFRELLNEGLEALKQKLK [Peptide 47], the “ACTIVITY (%) LCAT” value in the series with LCAT is 23%.

As to “~~LDEFREKLNEXLEALKQKLK (LDEFREKLNE[Aib]LEALKQKLK; not fully specified (C-terminus); printed as ~~LDEFREKLNEXLEALKQKLK) [Peptide 82]”, the “ACTIVITY (%) LCAT” value with LCAT is recorded as 8%. In the case of “~~~DEFREKLNEXLEALKQKLK (DEFREKLNE[Aib]LEALKQKLK; not fully specified (C-terminus); printed as ~~~DEFREKLNEXLEALKQKLK) [Peptide 90]”, the “ACTIVITY (%) LCAT” value with LCAT was 6%.
